Laboratory results as given in patent publication US11833215B2, “CKIT antibody drug conjugates” (Novartis AG, priority 2014, dated 2023).

Target: T1, Human cKIT D1-D3 ECD (Homo sapiens, UniProt P10721, N130S/N145S)
T1 construct: protein was made with residues Q26-G311; made in house
Test: crystal structure of cKIT ECD/NEG085 Fab complex
Experimental: Human cKIT (accession code NM_000222 domain 1 (D1)-domain 3 (D3) extracellular domain (ECD) protein was made with residues Q26-G311 ([…], N145S- these changes results in glycosylation deficiency, in order to express the protein in a glycan free form). Equal molar ratios of human cKIT D1-D3 ECD and NEG085 Fab were mixed and subjected to a final gel filtration step equilibrated with 20 mM Tris-HCl pH 7.5 and 100 mM NaCl, and concentrated to 20 mg/ml. Trypsin was added to the protein complex crystallization sample to create a 1:100 w/w dilution. The protease/sample mixture was incubated at room temperature for 30 minutes before setting up the crystallization experiment.
Diffracting crystals of the cKIT ECD/NEG085 Fab complex were obtained directly from Protein Complex Suite F5 (0.1M NaCl, 0.1M Tris pH 8.0, 8% PEG 20 k; Qiagen) at 4° C. and, after minor optimization, led to crystals diffracting to 5 Å in-house. […]
Data were collected on a single crystal cooled to 100K using an ADSC QUANTUM 315 detector (ADSC, Poway CA) and synchrotron radiation (λ=1.0000 Å) at the beam line 5.0.2 of the Advanced Light Source. […] The crystal contains four copies of the cKIT ECD/NEG085 Fab complex in the asymmetric unit with a calculated solvent content of 66%. […]

T1 sequence (P10721 26-311 N130S/N145S limits assumed): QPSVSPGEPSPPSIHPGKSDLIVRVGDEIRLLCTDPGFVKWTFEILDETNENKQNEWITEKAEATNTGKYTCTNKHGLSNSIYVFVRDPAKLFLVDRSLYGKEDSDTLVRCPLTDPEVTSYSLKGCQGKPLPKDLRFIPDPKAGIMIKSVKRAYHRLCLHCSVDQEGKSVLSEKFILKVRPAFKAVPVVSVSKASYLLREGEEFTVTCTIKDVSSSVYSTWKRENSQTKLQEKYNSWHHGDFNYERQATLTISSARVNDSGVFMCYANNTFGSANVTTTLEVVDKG

B1: NEG085: anti-cKIT antibody of Table 3, VH SEQ ID NO 82, VL SEQ ID NO 91 (antibody, listed as Homo sapiens, V domains shown)
VH: EVQLVESGGGLVQPGGSLRLSCAASGFAFSGYYMAWVRQAPGKGLEWVANINYPGSSTYYLDSVKGRFTISRDNAKNSLYLQMNSLRAEDTAVYYCARGDYYGTTYWYFDVWGQGTTVTVSS
VL: DIQMTQSPSSLSASVGDRVTITCRASQSISSYLNWYQQKPGKAPKLLIYYTSRLQSGVPSRFSGSGSGTDFTLTISSLQPEDFATYYCQQGRRLWSFGGGTKVEIK
- competition with SCF for binding to cKIT (superposition of structures): appear to not compete
- solvent-accessible surface area buried by NEG085/cKIT interface (total, H and L chain): ~1890 Å2
